The supplement of paper PMC12042874
± gives the uncertainty stated by the source.

Assay: amyloid nucleation score (Sup35N fusion, yeast selection) (log enrichment); library NNK2; higher = more nucleation; inactive = no reads after selection
How it was run: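 The nucleation score is the log enrichment of output over input reads, calculated with DiMSum and centred on the mode score of non-aggregating sequences. Sequences with under 100 input reads were excluded. Reads came from Illumina sequencing of plasmid inserts from psi-negative yeast expressing Sup35N fused to peptides of 20 random codons, induced 24 hours with 100 μM copper sulfate and grown 7 days at 30°C without adenine and uracil.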
For VPTCN, the amyloid nucleation score was 0.123 ± 0.54.
ANTFIPFFGISSVRSGRNAA gave an amyloid nucleation score of 2.65 ± 0.11.
In the case of ASSIG, the amyloid nucleation score is reported as 0.072 ± 0.26.
SWNSV gave an amyloid nucleation score of -0.442 ± 0.41.
Work on EVHGCYRAWDCMMVACVNAL yielded an amyloid nucleation score of 0.963 ± 0.53.
Work on LALTWKAWTTHSPRKLAAVF yielded an amyloid nucleation score of 0.353 ± 0.31.
MRKLSKLLTWHPRHA showed an amyloid nucleation score of -0.517 ± 0.54.
With SWKSFKRPGTRCRGQYYYMS the amyloid nucleation score was -0.266 ± 1.
ILGCWELSHM gave an amyloid nucleation score of -0.849 ± 1.1.
WRQSVQ gave an amyloid nucleation score of 1.12 ± 0.33.
For NMGLFGGILVFVMWLIMCSL, the amyloid nucleation score was 2.31 ± 0.15.
Work on HHVGGMTV yielded an amyloid nucleation score of 0.691 ± 0.8.
In the case of LVHMLCQ, the amyloid nucleation score is reported as 0.893 ± 0.24.
CTSCERSLAKRLQGWHIF gave an amyloid nucleation score of -1.09 ± 0.63.
Substance DISVLSLQYMS has an amyloid nucleation score of -0.105 ± 0.8.
For LGCEDIHKEYSLHFSIWMQM, the amyloid nucleation score was 0.975 ± 0.18.
EPTFWPRW gave an amyloid nucleation score of 0.626 ± 0.35.
GQELSGNIFIPDHLGLLSCS showed an amyloid nucleation score of 0.744 ± 0.8.
In the case of ASSSGPGCSLVSSVHASRQG, the amyloid nucleation score is reported as 1.54 ± 0.52.
RNYEGPPGDLGQQVLSHSMP gave an amyloid nucleation score of -0.853 ± 0.63.
In the case of CSEVLRTFGKARHTEAR, the amyloid nucleation score is reported as 0.501 ± 0.2.
FNLADSTSSVTP gave an amyloid nucleation score of 0.048 ± 0.65.
In the case of GLSELMKGLLTN, the amyloid nucleation score is reported as 0.08 ± 0.79.
For NGVRYYFRVRGSMTRLNEAE, the amyloid nucleation score was 0.276 ± 1.
SRIFVLYYSWDAWNSWGDVV gave an amyloid nucleation score of 0.602 ± 0.6.
SHGCGHRL showed an amyloid nucleation score of -0.051 ± 0.79.
TNMIMLFIRMGLRHGDKWAW showed an amyloid nucleation score of 2.54 ± 0.19.
Work on GWGFFIDSYQHGLLM yielded an amyloid nucleation score of -1.27 ± 0.54.
FIGNF showed an amyloid nucleation score of 0.636 ± 0.19.
Work on GDSVLLYKWYMLGCWPIGSC yielded an amyloid nucleation score of 4.31 ± 0.056.
DSCCIFIL gave an amyloid nucleation score of 5.67 ± 0.058.
VVENRALLYGGFVR gave an amyloid nucleation score of 0.135 ± 0.63.
TIARVIFNPVLCWKVSSRV showed an amyloid nucleation score of 5.52 ± 0.063.
Work on IQDWHVES yielded an amyloid nucleation score of -0.075 ± 0.46.
SISAKFSSTSWGGG gave an amyloid nucleation score of 6.444 ± 0.046.
With MTYCVN the amyloid nucleation score was 3.87 ± 0.067.
Substance VNRPATPFEGSQCLIIYSRV has an amyloid nucleation score of -0.613 ± 0.45.
In the case of YFRVFFFLMSIYTDKN, the amyloid nucleation score is reported as “inactive”.
Work on ASWIAGYITMHTISSFP yielded an amyloid nucleation score of 0.056 ± 0.36.
Work on LTKVWLPCAFVVSSFDQYQH yielded an amyloid nucleation score of 0.764 ± 0.41.
For YLCPTSGKLCGSSGKTMVTV, the amyloid nucleation score was -1.18 ± 0.48.
EGCRMLNIYLPDFLSFLDTG gave an amyloid nucleation score of -1.16 ± 0.78.
Work on SVFLSKDIKGVNQCGGLWLS yielded an amyloid nucleation score of 0.296 ± 0.25.
TCDKLGAVVMSLLECVNEAP gave an amyloid nucleation score of 0.205 ± 0.77.
With ILELDMLLCKKVTHL the amyloid nucleation score was 4.3 ± 0.089.
With SVWWSSNFINPPDFCNM the amyloid nucleation score was -1.19 ± 1.1.
For FRYAVPMCTFFADYFMSDQS, the amyloid nucleation score was “inactive”.
Work on VNFLWE yielded an amyloid nucleation score of -0.447 ± 1.1.
DLRLTSHIRSFIFAGVPVLF gave an amyloid nucleation score of -1.65 ± 0.49.
With FINWHGMHSL the amyloid nucleation score was 0.89 ± 0.16.
For VIVCCGSCLHRE, the amyloid nucleation score was 9.721 ± 0.05.
MFMTVRWNVAINLELFTVID gave an amyloid nucleation score of -0.34 ± 0.39.
For MTVDYLHRLCCMRPLYTSKN, the amyloid nucleation score was “inactive”.
Work on TCRTSTRRPIGWLSWYVG yielded an amyloid nucleation score of 0.654 ± 0.43.
IMCRETRLYMGMFVFDQLPQ showed an amyloid nucleation score of 6.46 ± 0.079.
Work on CDLKERTEYMHFLLTFYLVR yielded an amyloid nucleation score of -0.891 ± 0.36.
In the case of VVPFIKTRCNPV, the amyloid nucleation score is reported as -0.829 ± 0.33.
Work on SYKGALLSEQIL yielded an amyloid nucleation score of 0.114 ± 0.4.
For CSAVAALLPILGMELIGTSI, the amyloid nucleation score was -0.41 ± 0.55.
With MPNNVPEEN the amyloid nucleation score was 0.216 ± 0.62.
VTANNFKWVVIWLSWRGYGD gave an amyloid nucleation score of -1.48 ± 1.1.
MLDVVARNH gave an amyloid nucleation score of 1.52 ± 0.3.
In the case of YCYEPLTC, the amyloid nucleation score is reported as 0.508 ± 0.49.
GIVFIYMNRPSFVVDDLTAG gave an amyloid nucleation score of 7.27 ± 0.078.
PGTKLLSSVNAQRDSLKKGG gave an amyloid nucleation score of -0.478 ± 0.4.
Substance GANMLETV has an amyloid nucleation score of -0.085 ± 0.47.
KLYMCVIFYCLKGRLLVTYM showed an amyloid nucleation score of -1.18 ± 0.63.
For SVVSGWWVIIFLYSHGVSIE, the amyloid nucleation score was 0.093 ± 0.8.
Work on FLGEVCQWDRMIVARVKATR yielded an amyloid nucleation score of -0.063 ± 0.29.
For DLSLESLRSNEVEAVNMFVF, the amyloid nucleation score was “inactive”.
GCGCATGREDTPGNIGWMV gave an amyloid nucleation score of 0.507 ± 0.25.
Substance FCSCWNSEFNENSFVWRNIL has an amyloid nucleation score of 5.35 ± 0.058.
With KVSGRYVEEYDHFPTDLSSL the amyloid nucleation score was -0.046 ± 0.54.
For NGTTWKYYSRMSVTCAGPSI, the amyloid nucleation score was -0.952 ± 0.39.
With TNRGCSMKRRKSINPRILGM the amyloid nucleation score was “inactive”.
In the case of HRCNMGLSWTGVYQRVGKSS, the amyloid nucleation score is reported as 0.757 ± 0.57.
Work on AGMMFKR yielded an amyloid nucleation score of 1.71 ± 0.37.
In the case of DRESRFLYVYHSRY, the amyloid nucleation score is reported as “inactive”.
With GDWSYGMGFNMVAMRNWEYL the amyloid nucleation score was -0.512 ± 0.63.
For ISGWYVVSSVS, the amyloid nucleation score was 0.912 ± 0.22.
Substance LVCSKSAGEWAYSRFGVLDL has an amyloid nucleation score of -0.444 ± 0.44.
In the case of SLYFVWSCLLGILKVMPTFN, the amyloid nucleation score is reported as -1.18 ± 0.64.
For LVGLISRNKVVRTGIENNKD, the amyloid nucleation score was -0.059 ± 0.55.
LVQLMMMFWKRGLRDSANMV showed an amyloid nucleation score of -1.13 ± 0.78.
FCRDLVSGLIMTMPLCTDEM gave an amyloid nucleation score of 0.079 ± 0.5.
In the case of WCSCQPSFSKKHGEFYNLFL, the amyloid nucleation score is reported as 9.215 ± 0.032.
Work on LFLTDTLMMYINSECR yielded an amyloid nucleation score of 1.75 ± 0.087.
Substance SLLGLNFCSMLAIL has an amyloid nucleation score of 3.23 ± 0.075.
